The record followed here is US20210070875A1.

The target of one assay is C5aR polypeptide-03 (UniProt P21730). Description: ELISA, polypeptide coated at 1.0 µg/mL. A general note: An ELISA detects its analyte on a solid surface through an enzyme-linked reagent.
Another assay addresses C5aR polypeptide-05 (UniProt P21730). Kind of assay: ELISA, polypeptide coated at 1.0 µg/mL.
The target of the next assay is C5aR polypeptide-04 (UniProt P21730). Kind of assay: ELISA, polypeptide coated at 1.0 µg/mL.
In assay [1] the target is C5aR extracellular N-terminus polypeptide (UniProt P21730). Kind of assay: ELISA, polypeptide coated at 1.0 µg/mL.
The target in assay [2] is human C5aR (human) (UniProt P21730). Description: FACS, CHOK1-hC5aR cells, 0.0000 nM antibody (background). (A flow cytometer gives signals particle by particle.)
Sequence of human C5aR (human) (P21730 other isoform, or with tags, fused parts or gaps): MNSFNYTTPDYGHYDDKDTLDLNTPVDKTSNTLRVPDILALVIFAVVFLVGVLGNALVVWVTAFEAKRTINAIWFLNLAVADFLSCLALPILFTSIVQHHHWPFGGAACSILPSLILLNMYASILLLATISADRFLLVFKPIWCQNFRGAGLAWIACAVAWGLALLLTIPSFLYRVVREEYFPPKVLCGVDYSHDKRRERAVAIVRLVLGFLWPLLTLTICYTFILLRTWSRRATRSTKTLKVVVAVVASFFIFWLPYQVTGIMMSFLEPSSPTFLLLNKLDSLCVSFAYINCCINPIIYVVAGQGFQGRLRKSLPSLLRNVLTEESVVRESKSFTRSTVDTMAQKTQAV
Assay [3] has the same target. Kind of assay: cell-based or functional assay.
The target is the same in assay [4]. Kind of assay: FACS, CHOK1-hC5aR cells, 0.0666 nM antibody.
The target is the same in assay [5]. Kind of assay: FACS, CHOK1-hC5aR cells, 6.6600 nM antibody.
The target is the same in assay [6]. Kind of assay: FACS, CHOK1-hC5aR cells, 0.0007 nM antibody.
Assay [7] has the same target. Description: FACS, CHOK1-hC5aR cells, 66.6000 nM antibody.
For assay [8] the target is unchanged. Description: FACS, CHOK1-hC5aR cells, 666.0000 nM antibody.
The target is the same in assay [9]. Kind of assay: FACS, CHOK1-hC5aR cells, 0.0067 nM antibody.
Assay [10] has the same target. Kind of assay: FACS, CHOK1-hC5aR cells, 0.6660 nM antibody.

Several values for one entry are separate records, joined by “and”; a condition that tells them apart may be missing. Equal values may be shown once.

Regarding IgG control (human IgG) (antibody), the OD450 nm with C5aR polypeptide-03 was 0.07 OD450 nm; with C5aR polypeptide-05, 0.07 OD450 nm; with C5aR polypeptide-04, 0.06 OD450 nm; in assay [1], 0.07 OD450 nm.
Regarding mIgG control (murine IgG) (antibody), the MFI in the assay with human C5aR (human) [2] was 2.69 MFI and 1.99 MFI. In the assay with human C5aR (human) [3], this substance displayed a C5a-induced human neutrophil migration, Celltiter-Glo fluorescence intensity value, Parallel sample 1 (fluorescence intensity) of 5170; a C5a-induced human neutrophil migration, Celltiter-Glo fluorescence intensity value, Parallel sample 2 (fluorescence intensity) of 5000; a C5a-induced human neutrophil migration, Celltiter-Glo fluorescence intensity value, Parallel sample 3 (fluorescence intensity) of 2580; a C5a-induced human neutrophil migration, Celltiter-Glo fluorescence intensity value, Parallel sample 4 (fluorescence intensity) of 2640. Moreover, in the assay with human C5aR (human) [3], the C5a-mediated calcium flow signal, FLIPR, antibody 0.0 µg/mL is 1870 MFI and 1690 MFI; the C5a-mediated calcium flow signal, FLIPR, antibody 0.01 µg/mL was 2110 MFI and 1890 MFI; the C5a-mediated calcium flow signal, FLIPR, antibody 0.1 µg/mL was 2080 MFI and 1740 MFI; the C5a-mediated calcium flow signal, FLIPR, antibody 0.4 µg/mL is 1920 MFI and 1610 MFI. In the assay with human C5aR (human) [3], the C5a-mediated calcium flow signal, FLIPR, antibody 1.1 µg/mL is 1830 MFI and 1790 MFI; the C5a-mediated calcium flow signal, FLIPR, antibody 3.3 µg/mL was 1870 MFI and 1840 MFI; the C5a-mediated calcium flow signal, FLIPR, antibody 10.0 µg/mL was 1730 MFI and 1850 MFI; the C5a-mediated calcium flow signal, FLIPR, antibody 30.0 µg/mL amounted to 1590 MFI. The MFI with human C5aR (human) [4] was 2.81 MFI and 2 MFI. Further, the MFI in the assay with human C5aR (human) [5] was 2.88 MFI and 2.01 MFI. Also, the MFI with human C5aR (human) [6] was 2.78 MFI and 2.03 MFI. Further, the MFI in the assay with human C5aR (human) [7] was 3.18 MFI and 2.14 MFI. The MFI with human C5aR (human) [8] was 3.22 MFI and 2.21 MFI. Also, in the assay with human C5aR (human) [9], the MFI is 2.79 MFI and 2.01 MFI. For the same substance, in the assay with human C5aR (human) [10], the MFI is 2.96 MFI and 1.99 MFI.
